Biological target: Hfq (Escherichia coli, UniProt P0A6X3 1-102)
Assay: EMSA; 25 uM Hfq with 0.5-4 uM FAM-rA30, no polyP; Condensates: 20 mM HEPES pH 7.0, 50 mM NaCl, no crowder; EMSA buffer and temperature not given in the material
Conditions: protein: recombinant; chain copies: 6; label: FAM (5' as printed FAM-(rA)30); single strand

Sequence of Hfq (P0A6X3 whole entry): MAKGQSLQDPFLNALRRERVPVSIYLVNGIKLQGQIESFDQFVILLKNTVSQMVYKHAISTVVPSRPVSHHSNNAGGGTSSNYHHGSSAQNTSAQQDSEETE

AAAAAAAAAAAAAAAAAAAAAAAAAAAAAA (ssRNA) [FAM-rA30]
binding result: binds
